Where “and” joins values, the source holds several entries; their conditions need not be identical. Equal entries are not always repeated.
What was measured:
[1] = target: IDE (S10 extract or rIDE) (Homo sapiens, UniProt P14735); type: in vitro ADME; details: 30 ng vp6, 5 μg S10 extract, up to 60 min; Western blot densitometry; at least 3 independent experiments
Method: Fig 9 Multiplication of PTAPPA-motifs stabilizes p6. 20 ng of sp6 or 30 ng of vp6 were incubated either with 5 μg S10 extract (A/B/C) or 2 ng of rIDE (D) for up to 60 min. Degradation efficiency was quantified via densitometric analyses of Western blots. Values represent the arithmetic mean ± SD of at least 3 independent experiments for each setting.
Typically 5 μg S10 were incubated with inhibitor or buffer and 20–100 ng sp6 at 37°C for 30 min. Reactions were stopped by addition of sample buffer and incubation at 95°C for 5 min. Remaining p6 was detected by Western blotting using an anti-p6 rabbit antiserum. Alternatively, 10 ng of BODIPY FL-labeled sp6 (sp6BY) were used as substrate and detected directly in the polyacrylamide gel by fluorescence scanning. In some experiments the amount of p6 was densitometrically quantified with the software AIDA (Raytest). For the in vitro degradation of amyloid-β 10 ng of Aβ-FITC (abcam) were used analogously to sp6BY. For the in vitro degradation of viral p6, VLPs were pelleted and lysed in IDE enzyme buffer (150 mM NaCl, 50 mM Tris pH 7.4, 0.5% (v/v) Triton X-100). The p6 content was estimated by Western blotting using a dilution series of sp6 with known concentrations. Equivalents of 15 ng were used for digestion experiments and subsequently detected by Western blotting. […]

[2] = tested on: X4-tropic field isolate HIV-1 BK132; experiment: HIV-1 replication capacity in activated PBMCs (RT activity, AUC); type: cell-based; details: 50 μg/ml insulin or 10 μM 6bK, permanent treatment; PHA-IL2-stimulated PBMCs from 3 different donors (S6 Fig)
Method: For infection, PBMCs were isolated from buffy coats of several blood donors and stimulated with PHA and IL-2 for three days. 1×10^6 PBMCs were incubated overnight with virus preparations equivalent to 0.031 ng of p24, and cell culture supernatant was collected every second or third day post infection (dpi). […] Virus replication was assessed by quantification of the virus-associated RT activity by [^32P]-TTP incorporation, using an oligo(dT)-poly(A) template as described elsewhere. In case of replications with inhibitor treatment, cell viability was determined in parallel by WST-1 assay (Roche) according to the manufacturer’s instructions on the last day of replication. For estimation of the multiplicity of infection (MOI), infectious units of virus stocks were determined by TCID50 end point titration in activated PBMCs. […] The MOI was calculated as the ratio of infectious units per target cells and was ~10^−4 in case of 0.031 ng p24 of input virus.
To determine the replication capacity of HIV-1 following infection with the indicated HIV-1 variants, the respective replication profiles were depicted as diagram (y-axis: RT activity; x-axis: dpi) and the area under curve was calculated and defined as the corresponding replication capacity of the HIV-1 variants. […] Viability of treated cells was assessed on the last day of replication by the water-soluble tetrazolium method. […]

recombinant IDE (rIDE) = target: T1, recombinant IDE (rIDE) (Rattus norvegicus, UniProt P35559); experiment: Inhibition of rIDE-mediated degradation of sp6BY; type: biochemical; details: 10 ng rIDE, 10 ng sp6BY, 30 min, 37°C; TPEN 1 mM, NEM 1 mM, insulin 100 μg/ml
T1 construct: purchased Calbiochem
Method: Fig 6 IDE is sufficient and required for the in vitro degradation of sp6 and vp6. (A) 10 ng sp6BY were incubated with 5 μg S10 extract from HeLa cells, either untransfected or transfected with control or IDE-specific siRNA, for 0, 10, 30 or 90 min at 37°C. (B) sp6BY was detected by fluorescence emission and quantified. (C) VLP lysates from HEK293T cells were incubated with S10 from siRNA treated cells described in A. Viral proteins were detected as described in Fig 1. (D) Western blot analyses of the S10 extract used in A and C. The membrane was stained with antibodies specific for IDE, HSP70, and β-actin. […] (F) VLP lysates were incubated with 10 ng rIDE for 30 min.
(§1) Typically 5 μg S10 were incubated with inhibitor or buffer and 20–100 ng sp6 at 37°C for 30 min. Reactions were stopped by addition of sample buffer and incubation at 95°C for 5 min. Remaining p6 was detected by Western blotting using an anti-p6 rabbit antiserum. Alternatively, 10 ng of BODIPY FL-labeled sp6 (sp6BY) were used as substrate and detected directly in the polyacrylamide gel by fluorescence scanning. In some experiments the amount of p6 was densitometrically quantified with the software AIDA (Raytest). For the in vitro degradation of amyloid-β 10 ng of Aβ-FITC (abcam) were used analogously to sp6BY. For the in vitro degradation of viral p6, VLPs were pelleted and lysed in IDE enzyme buffer (150 mM NaCl, 50 mM Tris pH 7.4, 0.5% (v/v) Triton X-100). The p6 content was estimated by Western blotting using a dilution series of sp6 with known concentrations. Equivalents of 15 ng were used for digestion experiments and subsequently detected by Western blotting. Experiments carried out with recombinant IDE (Calbiochem) were performed in IDE enzyme buffer. Recombinant FITC-labeled insulin was purchased from Sigma.

[3] = target: T2, insulin-degrading enzyme (IDE) (Homo sapiens, UniProt P14735); experiment: Inhibition of Aβ-FITC degradation in S10 extract; type: biochemical; details: titration; 10 ng Aβ-FITC, 5 μg S10, 45 min, 37°C; fluorescence
T2 construct: endogenous in cells; host or cells: HeLa cells (cytosolic S10 extract)
Method: as §1, with “Typically 5 μg S10 were incubated with inhibitor or buffer and 20–100 ng sp6 at 37°C for 30 min.” left out
Supplementary file pone.0174254.s003.tif: S3 Fig p6 competes with the in vitro degradation of Aβ. […] Aβ-FITC was detected by measurement of fluorescence excitation. The band marked with * represents Aβ-oligomers and has been described earlier. (B) Band intensities were quantified for four independent experiments and values represent the arithmetic mean ± SD. […]

purified mammalian IDE = details: purified mammalian IDE; cited from earlier work
[4] = tested on: X4-tropic HIV-1NL4-3 3xPTAPPA mutant; experiment: HIV-1 replication capacity in activated PBMCs (RT activity, AUC); type: cell-based; details: 50 μg/ml insulin or 10 μM 6bK, permanent treatment; PHA-IL2-stimulated PBMCs from 3 different donors
Method: (§2) For infection, PBMCs were isolated from buffy coats of several blood donors and stimulated with PHA and IL-2 for three days. 1×10^6 PBMCs were incubated overnight with virus preparations equivalent to 0.031 ng of p24, and cell culture supernatant was collected every second or third day post infection (dpi). […] Virus replication was assessed by quantification of the virus-associated RT activity by [^32P]-TTP incorporation, using an oligo(dT)-poly(A) template as described elsewhere. In case of replications with inhibitor treatment, cell viability was determined in parallel by WST-1 assay (Roche) according to the manufacturer’s instructions on the last day of replication. For estimation of the multiplicity of infection (MOI), infectious units of virus stocks were determined by TCID50 end point titration in activated PBMCs. The number of HIV-1 target cells was estimated to be 50% of total PBMCs as reported in [93]. The MOI was calculated as the ratio of infectious units per target cells and was ~10^−4 in case of 0.031 ng p24 of input virus.
(§3) To determine the replication capacity of HIV-1 following infection with the indicated HIV-1 variants, the respective replication profiles were depicted as diagram (y-axis: RT activity; x-axis: dpi) and the area under curve was calculated and defined as the corresponding replication capacity of the HIV-1 variants. In every experiment the replication capacity of the untreated wt was set to 100% and compared with the indicated variants. Viability of treated cells was assessed on the last day of replication by the water-soluble tetrazolium method. All conditions were not found to diminish cell viability.

R5-tropic HIV-1NL4-3 = experiment: as above; type: cell-based; details: 50 μg/ml insulin or 10 μM 6bK, permanent treatment; PHA-IL2-stimulated PBMCs from 3 different donors
Method: as §2, §3

X4-tropic HIV-1NL4-3 wt = experiment: as above; type: cell-based; details: continuous treatment with 50 μg/ml insulin; PHA-IL2-stimulated PBMCs from 3 different donors; MOI ~10^−4; untreated wt = 100%
Method: as §2, §3

T1 sequence (P35559 whole entry): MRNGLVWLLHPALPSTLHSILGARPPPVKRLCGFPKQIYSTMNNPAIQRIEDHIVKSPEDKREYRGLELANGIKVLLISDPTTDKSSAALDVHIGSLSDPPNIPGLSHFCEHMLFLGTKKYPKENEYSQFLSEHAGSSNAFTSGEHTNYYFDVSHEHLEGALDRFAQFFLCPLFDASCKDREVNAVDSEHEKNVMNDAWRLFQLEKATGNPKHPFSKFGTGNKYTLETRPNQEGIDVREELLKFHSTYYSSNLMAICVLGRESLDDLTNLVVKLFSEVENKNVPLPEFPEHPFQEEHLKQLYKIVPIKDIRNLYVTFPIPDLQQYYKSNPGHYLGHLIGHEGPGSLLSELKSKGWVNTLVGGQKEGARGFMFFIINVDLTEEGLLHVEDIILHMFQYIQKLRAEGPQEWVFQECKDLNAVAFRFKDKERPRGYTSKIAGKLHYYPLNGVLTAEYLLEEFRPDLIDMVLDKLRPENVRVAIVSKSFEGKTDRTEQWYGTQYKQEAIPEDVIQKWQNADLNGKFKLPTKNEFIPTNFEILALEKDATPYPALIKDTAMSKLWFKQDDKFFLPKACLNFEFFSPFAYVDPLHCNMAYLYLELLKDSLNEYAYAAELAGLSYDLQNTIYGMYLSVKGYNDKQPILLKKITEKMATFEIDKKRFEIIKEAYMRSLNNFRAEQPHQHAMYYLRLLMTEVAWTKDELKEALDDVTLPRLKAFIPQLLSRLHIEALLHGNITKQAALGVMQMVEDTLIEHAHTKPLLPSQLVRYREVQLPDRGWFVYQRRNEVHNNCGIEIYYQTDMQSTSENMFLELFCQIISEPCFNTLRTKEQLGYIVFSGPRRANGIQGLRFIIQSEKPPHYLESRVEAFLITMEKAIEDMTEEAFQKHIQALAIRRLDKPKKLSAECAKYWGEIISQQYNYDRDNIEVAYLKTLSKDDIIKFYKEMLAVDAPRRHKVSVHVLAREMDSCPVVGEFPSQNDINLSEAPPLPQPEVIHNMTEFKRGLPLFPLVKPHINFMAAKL

Compound | degradation kinetics of vp6 mutants in S10 [1] | effect on replication capacity of HIV-1 BK132 compared with HIV-1NL4-3 [2] | stabilization of sp6 in the presence of rIDE (recombinant IDE (rIDE)) | effect on degradation of Aβ-FITC [3] | Km (purified mammalian IDE) [µM] | kcat (purified mammalian IDE) [s⁻¹] | effect on replication capacity of the IDE-insensitive 3xPTAPPA mutant [4] | effect on replication capacity of R5-tropic HIV-1 (wt and 3xPTAPPA) (R5-tropic HIV-1NL4-3) | reduction of HIV-1 replication (replication capacity, AUC of RT activity) (X4-tropic HIV-1NL4-3 wt)
CC[C@H](C)[C@H](NC(=O)[C@@H]1CCCN1C(=O)[C@H](CCC(=O)O)NC(=O)[C@H](CCC(N)=O)NC(=O)[C@H](CCCCN)NC(=O)[C@H](CCC(N)=O)NC(=O)[C@H](CO)NC(=O)[C@@H]1CCCN1C(=O)[C@@H](NC(=O)[C@@H](NC(=O)[C@@H](NC(=O)[C@H](CCC(=O)O)NC(=O)[C@H](CCC(=O)O)NC(=O)CNC(=O)[C@H](Cc1ccccc1)NC(=O)[C@H](CCCNC(=N)N)NC(=O)[C@H](Cc1ccccc1)NC(=O)[C@H](CO)NC(=O)[C@H](CCC(=O)O)NC(=O)[C@H](C)NC(=O)[C@@H]1CCCN1C(=O)[C@@H]1CCCN1C(=O)[C@H](C)NC(=O)[C@@H](NC(=O)[C@H](CC(C)C)NC(=O)[C@H](C)NC(=O)[C@@H]1CCCN1C(=O)[C@@H]1CCCN1C(=O)[C@H](C)NC(=O)[C@@H](NC(=O)[C@@H]1CCCN1C(=O)[C@H](CCC(=O)O)NC(=O)[C@@H]1CCCN1C(=O)[C@H](CCCNC(=N)N)NC(=O)[C@H](CO)NC(=O)[C@H](CCC(N)=O)NC(=O)[C@@H](N)CC(C)C)[C@@H](C)O)[C@@H](C)O)[C@@H](C)O)[C@@H](C)O)[C@@H](C)O)C(=O)N[C@@H](CC(=O)O)C(=O)N[C@@H](CCCCN)C(=O)N[C@@H](CCC(=O)O)C(=O)N[C@@H](CC(C)C)C(=O)N[C@@H](Cc1ccc(O)cc1)C(=O)N1CCC[C@H]1C(=O)N[C@@H](CC(C)C)C(=O)N[C@@H](C)C(=O)N[C@@H](CO)C(=O)N[C@@H](CC(C)C)C(=O)N[C@@H](CCCNC(=N)N)C(=O)N[C@@H](CO)C(=O)N[C@@H](CC(C)C)C(=O)N[C@@H](Cc1ccccc1)C(=O)NCC(=O)N[C@@H](CO)C(=O)N[C@@H](CC(=O)O)C(=O)N1CCC[C@H]1C(=O)N[C@@H](CO)C(=O)N[C@@H](CO)C(=O)N[C@@H](CCC(N)=O)C(=O)O [PL] | comparable to their 2x and 3x counterparts | – | – | – | – | – | – | – | –
insulin | – | same impact | stabilized sp6 | resulted in a stabilization of Aβ-FITC | 0.066 | 0.025 | insensitive to insulin treatment | insensitive to exogenous insulin | ~ 50% and 50%

Reference: paper PMC5384750 (PLoS ONE, 2017)
